Experimental findings from patent US20040146519A1 are described below.

One assay addresses HLA-B*5401 (human). As to the kind of experiment: inhibition of 125I probe peptide, purified HLA. The conditions noted are these: remark: other sources report otherwise.
The target of another assay is HLA-B*5301 (human). As to the kind of experiment: inhibition of 125I probe peptide, purified HLA. Particulars: remark: other sources report otherwise.
A further assay has as its target HLA-A*0201 (human). In words: competitive inhibition of 125I probe peptide, purified HLA.
For assay [1], the target named is HLA-A*0206 (human). As to the kind of experiment: competition with 125I probe peptide for purified HLA. The conditions noted are these: remark: other sources report otherwise.
The next assay concerns the target HLA-A*3101 (human). Described as above. Particulars: remark: other sources report otherwise.
Assay [2] has as its target HLA-A*0206 (human). As to the kind of experiment: inhibition of 125I probe peptide, purified HLA. Particulars: remark: other sources report otherwise.
The target of a further assay is HLA-B*0702 (human). In words: inhibition of 125I probe peptide, purified HLA. The conditions noted are these: remark: other sources report otherwise.
A further assay concerns the target HLA-B*5101 (human). In words: inhibition of 125I probe peptide, purified HLA. Particulars: remark: other sources report otherwise.
The target in a further assay is T1, HLA-DRB1*1302 (human).
T1 chain 1: not shown
T1 chain 2: not shown
As to the kind of experiment: competition with 125I probe peptide, purified HLA. The conditions noted are these: remark: other sources report otherwise.

The target of another assay is T2, HLA-DRB1*1501 (human).
T2 chain 1: not shown
T2 chain 2: not shown
In words: competition with 125I probe peptide, purified HLA. The conditions noted are these: remark: other sources report otherwise.

Usually IC50 stands for the point on the concentration scale where inhibition reaches its midpoint. In the case of YPNASLLI [CEA.102], the half-maximal inhibitory concentration (IC50) with HLA-B*5401 (human) stood at 137 nM; with HLA-B*5301 (human), 40 nM.

For the molecule SLLTFWNPPT [CEA peptide, position 23, 10 amino acids], the relative binding ratio (IC50 standard/IC50 peptide) in the assay with HLA-A*0201 (human) came to 0.0022.

In turn, YLSGANLNV [CEA.605V9] gave an IC50 with HLA-A*0206 (human) [1] of 80 nM.

Consider RTLTLFNVTR [CEA.554], for which, in the assay with HLA-A*3101 (human), the IC50 turned out to be 5 nM.

For the molecule IPWQRLLLTA [CEA.13, 10 AA], in the assay with HLA-B*5401 (human), the IC50 stood at 3.2 nM.

For RVLTLFNVTR [CEA.554.V2], the IC50 with HLA-A*3101 (human) is 9 nM.

As for YLSGANLNV [CEA.605.V9], the half-inhibitory concentration (IC50) with HLA-A*0206 (human) [2] came out at 80 nM.

Turning to LPQHLFGYSI [CEA.58.I10], the IC50 in the assay with HLA-B*0702 (human) stood at 212 nM; with HLA-B*5301 (human), 930 nM.

Molecule RTLTLLSVTR [CEA.376] yielded an IC50 in the assay with HLA-A*3101 (human) of 6.2 nM.

In the case of IPWQRLLLTI [CEA.13.I10], the half-maximal inhibitory concentration (IC50) is 19 nM with HLA-B*5101 (human), 39 nM in the assay with HLA-B*0702 (human) and 270 nM with HLA-B*5401 (human).

In the case of RWCIPWQRLLLTASL [CEA.10], the IC50 with HLA-DRB1*1302 (human) is 318 nM; with HLA-DRB1*1501 (human), 827 nM.
